This test has as its target T1, human FSH receptor (human, UniProt P23945 18-695).
T1 construct: whole, on cells; Expressed in Y-1 (Y1) cells. cAMP is the read-out; also called hFSH receptor; recombinant native hFSH receptor
T1 sequence (looked up): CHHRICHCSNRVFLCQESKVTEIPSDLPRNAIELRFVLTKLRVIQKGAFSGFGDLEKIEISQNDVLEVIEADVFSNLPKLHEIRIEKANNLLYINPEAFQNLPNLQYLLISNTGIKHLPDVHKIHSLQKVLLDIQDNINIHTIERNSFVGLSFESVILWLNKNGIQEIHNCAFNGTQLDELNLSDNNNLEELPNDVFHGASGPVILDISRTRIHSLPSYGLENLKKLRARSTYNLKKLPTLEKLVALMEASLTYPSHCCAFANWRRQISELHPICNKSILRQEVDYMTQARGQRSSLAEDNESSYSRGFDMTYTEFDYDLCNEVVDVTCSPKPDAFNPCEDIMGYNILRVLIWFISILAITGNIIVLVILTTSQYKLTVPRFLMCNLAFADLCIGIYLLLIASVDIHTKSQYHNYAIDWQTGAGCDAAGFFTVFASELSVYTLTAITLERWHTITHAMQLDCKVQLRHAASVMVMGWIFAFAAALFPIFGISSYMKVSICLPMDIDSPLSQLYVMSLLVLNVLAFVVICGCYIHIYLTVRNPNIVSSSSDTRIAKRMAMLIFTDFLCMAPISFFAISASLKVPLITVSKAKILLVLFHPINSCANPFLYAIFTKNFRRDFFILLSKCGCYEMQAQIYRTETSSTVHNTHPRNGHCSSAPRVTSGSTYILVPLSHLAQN
The experiment in a line: conclusion drawn from the cAMP assay on cells expressing the hFSH receptor; no direct binding assay. On the procedure:
Bioactivity of the hFSH analogues was evaluated using Y-1 cells transfected with the FSH receptor. Y-1 cell cultures were mixed with the fusion protein and native pituitary hFSH (control) at varying concentrations and media was assayed for cAMP activity as described in Bouloux et al, 2001.
Figure 8: FIG. 8: In vitro bioassay of hormone activity. cAMP concentration (fmol/ml) was quantitated in Y1 cells expressing the FSH receptor after treatment with the indicated amount of either pituitary FSH (pFSH) or the FSH analogue, β-hFSH-CTP-α-hFSH (rFSH-CTP).
The bioactivity of the β-hFSH-CTP-α analogue was first assessed by an assay of hFSH receptor activity. In this assay, a recombinant native hFSH receptor is expressed in a suitable host cell and cAMP induction is measured following incubation with hormone (Lindau-Shepard et al, 2001).

B1: β-hFSH-CTP-α-hFSH fusion protein (ligand)
chain: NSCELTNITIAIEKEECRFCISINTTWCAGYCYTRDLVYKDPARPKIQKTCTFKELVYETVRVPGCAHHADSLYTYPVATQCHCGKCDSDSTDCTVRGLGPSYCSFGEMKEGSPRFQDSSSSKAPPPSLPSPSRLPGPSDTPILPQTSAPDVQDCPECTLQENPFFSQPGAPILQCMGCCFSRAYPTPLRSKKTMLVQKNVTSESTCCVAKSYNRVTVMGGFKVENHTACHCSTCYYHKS
modifications: O-linked glycosylation on serines of the CTP linker; N-linked glycosylation on the FSH subunits (sites not numbered on this entry)
notes: Secreted from CHO cells; also called β-hFSH-CTP-α analogue; rFSH-CTP
For the molecule B1, the binding result was “binds”.

The record behind these values is patent publication US7442684 (TRUSTEES OF COLUMBIA UNIVERSITY IN THE CITY OF NEW YORK, dated 2008).
